Where two headings read alike, the source gives them in different places.
Key:
Assay in all cases: native MS
[1] = molecular target: FapF
[2] = molecular target: FapF; remark: listed apart in the source
[3] = molecular target: FapF; remark: listed apart in the source

| Substance | stoichiometry N (per FapF trimer) [1] | stoichiometry N [2] | stoichiometry N [1] | stoichiometry N [3] |
| --- | --- | --- | --- | --- |
| FapE (natural protein) | 1 | – | – | – |
| FapF (natural protein) | – | 3 | 3 | 3 |
| FapC (natural protein) | 1 | – | – | – |
| FapD (natural protein) | 1 | – | – | – |
